Experimental data taken from US7635557B2 (MND Diagnostic Ltd., priority 2003, dated 2009).
Ends that are not written are not given here.

target: T1, Rhinovirus HRV14 3C protease (Human rhinovirus 14, UniProt P03303); type: biochemical; details: not given
T1 construct: the human rhinovirus 14 3C proteinase, cloned and expressed in E. coli; host or cells: E. coli
T1 sequence (P03303 1538-1719): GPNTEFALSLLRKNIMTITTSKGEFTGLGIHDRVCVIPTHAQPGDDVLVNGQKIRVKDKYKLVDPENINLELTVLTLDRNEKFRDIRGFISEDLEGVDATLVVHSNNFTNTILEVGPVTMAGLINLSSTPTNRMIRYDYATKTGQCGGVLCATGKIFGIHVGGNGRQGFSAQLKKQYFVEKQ

Substance | best substrate chosen based on the reaction rates
RPVVVQGPN | best peptide

target: T2, Human Rhinovirus serotype 1A 3C Protease (Human rhinovirus 1A, UniProt P23008); type: biochemical; details: not given
T2 construct: is used to clone the 3C Protease into the expression vector pET16-b; made in house; host or cells: E. coli BL21-DE3-pLys-S
T2 sequence (P23008 1515-1697 limits assumed): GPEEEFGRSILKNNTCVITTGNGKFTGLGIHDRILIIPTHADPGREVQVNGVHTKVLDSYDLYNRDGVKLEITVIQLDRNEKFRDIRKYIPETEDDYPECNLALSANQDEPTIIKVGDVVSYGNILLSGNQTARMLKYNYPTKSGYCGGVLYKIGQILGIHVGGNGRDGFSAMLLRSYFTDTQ

Substance | Km [µM]
MOC-Arg-Ala-Glu-Leu-Gln-Gly-Pro-Tyr-Asp-Lys-DNP-NH2 (RAELQGPYDK; not fully specified; MOC fluorochrome, DNP quencher, C-terminal amide; Human rhinovirus 1A; MOC; fluorochrome) [dimodified decapeptide substrate (7-methoxy coumarin-4-acetic acid fluorochrome and dinitrophenol quencher)] | 16.8

target: T1, Rhinovirus HRV14 3C protease; details: cited from earlier work

Substance | Hydrolysis rate | Relative Hydrolysis rate
VPYIERQANDGWFRK [III] | 0 | 0.0005
KLFAQTQGPYSGNP [VI] | 147 | 0.44
YRPVVVQGPNTEF [VII] | 37 | 0.11
SQTVALTEGLGDELEEY | 0 | 0.0005
EAIAEEQGLSDYIT [II] | 8 | 0.024
DSLETLFQGPVYK [I] | 355 | 1.00
KQYFVEKQGQVIAR [VIII] | 1 | 0.003
